Measured values from patent US20240309087A1 (SHANGHAI JUNSHI BIOSCIENCES, published 2024).
Substitutions are numbered along the chain they refer to.

T1: hCD112R mFC recombinant protein (human; murine, UniProt Q6DKI7 41-160)
T1 construct: range 41-160; expressed in 293E cells; also called hCD112R ECD mFC; hCD112R-ECD-mFC; not shown: murine IgG2a Fc domain (MX2-mFc vector)
T1 sequence (looked up): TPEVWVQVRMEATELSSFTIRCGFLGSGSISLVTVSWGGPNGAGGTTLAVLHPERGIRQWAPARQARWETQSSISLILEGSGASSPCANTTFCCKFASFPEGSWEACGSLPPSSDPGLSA

T2: human CD112R on Jurkat CD112R effector cells (human, UniProt Q6DKI7 1-326)
T2 sequence (looked up): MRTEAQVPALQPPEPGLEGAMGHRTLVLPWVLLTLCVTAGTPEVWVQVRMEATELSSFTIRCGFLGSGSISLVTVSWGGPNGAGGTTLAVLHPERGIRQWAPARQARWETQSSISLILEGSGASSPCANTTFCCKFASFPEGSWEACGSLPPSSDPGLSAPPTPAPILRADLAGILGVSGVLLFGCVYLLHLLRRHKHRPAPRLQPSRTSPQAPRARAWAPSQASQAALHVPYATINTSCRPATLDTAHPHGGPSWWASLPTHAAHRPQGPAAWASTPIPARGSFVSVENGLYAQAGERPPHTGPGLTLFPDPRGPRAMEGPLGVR

B1: Hu50 (antibody, IgG4, V domains shown)
VH: EVQLVESGGGLVKPGGSLRLSCAASGFTFSSYHMSWVRQAPGKGLELVSAINSNGINTYYLDTVKGRFTISRDNAKNSLYLQMNSLRAEDTAVYYCARHEDYYGFAMDYWGQGTLVTVSS
VL: AIQMTQSPSSLSASVGDRVTITCKASQSVTNDVAWYQQKPGKAPKLLIYYVSNHYTGVPSRFSGSGSGTDFTLTISSLQPEDFATYFCQQAYRSPWTFGQGTKLEIK
notes: humanized IgG4
B2: Hu51 (antibody, IgG4, V domains shown)
VH: B1 VH
VL: EIVMTQSPPTLSLSPGERVTLSCKASQSVSNDVAWYQEKPGQAPRLLIYYVSHRFTGIPARFSGSGSGTDFTLTISSLQPEDFAVYYCHQAYRSPWTFGQGTKLEIK
notes: humanized IgG4
B3: Hu3 (antibody, IgG4, V domains shown)
VH: B1 VH with K13Q, S49A, G55D, N74I
VL: B2 VL
notes: humanized IgG4; also called Hu-03
B4: Hu14 (antibody, IgG4, V domains shown)
VH: B1 VH with N52S, S53R, N54D, I56D, N57S, L61P, A97S, Y103F, Y109S
VL: B1 VL
notes: humanized IgG4
B5: Hu6 (antibody, IgG4, V domains shown)
VH: B1 VH with K13Q, S49A, G55D, N74I
VL: B2 VL with E38Q, H53N, Y87F, H89Q
notes: humanized IgG4; also called Hu-06
B6: Hu21 (antibody, IgG4, V domains shown)
VH: EVQLVESGGGLVKPGGSLRLSCAASGFTFSSYHMSWVRQAPGKGLELVSAISRDGDSTYYPDTVKGRFTISRDDAENSLYLQMNSLRAEDTAVYYCSRHEDYFGFAMDSWGQGTLVTVSS
VL: B2 VL
notes: humanized IgG4
B7: Hu5 (antibody, IgG4, V domains shown)
VH: B1 VH with K13Q, S49A, G55D, N74I
VL: B1 VL with A1D, T30S, H54R, Y55F
notes: humanized IgG4; also called Hu-05
B8: Hu20 (antibody, IgG4, V domains shown)
VH: B6 VH
VL: B1 VL
notes: humanized IgG4
B9: Hu56 (antibody, IgG4, V domains shown)
VH: B1 VH with K13Q, V37I, S49A
VL: B1 VL
notes: humanized IgG4
B10: Hu12 (antibody, IgG4, V domains shown)
VH: B1 VH with G55D, N74I
VL: B2 VL with E38Q, H53N, Y87F, H89Q
notes: humanized IgG4
B11: Hu53 (antibody, IgG4, V domains shown)
VH: B1 VH
VL: B1 VL with A1D, T30S, H54R, Y55F
notes: humanized IgG4
B12: Hu15 (antibody, IgG4, V domains shown)
VH: B6 VH with D74N, E76K
VL: B2 VL
notes: humanized IgG4
B13: Hu26 (antibody, IgG4, V domains shown)
VH: B6 VH with K13Q, S49A, D74N, E76K
VL: B1 VL
notes: humanized IgG4
B14: Hu9 (antibody, IgG4, V domains shown)
VH: B1 VH with G55D, N74I
VL: B2 VL
notes: humanized IgG4; also called Hu-09
B15: Hu27 (antibody, IgG4, V domains shown)
VH: B6 VH with K13Q, S49A, D74N, E76K
VL: B2 VL
notes: humanized IgG4
B16: Hu8 (antibody, IgG4, V domains shown)
VH: B1 VH with G55D, N74I
VL: B1 VL
notes: humanized IgG4; also called Hu-08
B17: Hu2 (antibody, IgG4, V domains shown)
VH: B1 VH with K13Q, S49A, G55D, N74I
VL: B1 VL
notes: humanized IgG4; also called Hu-02
B18: Hu11 (antibody, IgG4, V domains shown)
VH: B1 VH with G55D, N74I
VL: B1 VL with A1D, T30S, H54R, Y55F
notes: humanized IgG4

The binders below were run against T1, hCD112R mFC recombinant protein (assay: FACS competition, hCD112R mFc on CHO CD112 cells; IC50 COM701/IC50 antibody).
Experimental: (§1) Cells CHO CD112 overexpressing human CD112 were co-incubated with a hCD112R mFc protein solution (5 μg/mL) prepared in a staining buffer (PBS+1% FBS), and the humanized anti-CD112R antibodies or the control antibodies at different concentrations (initial concentration: 100 μg/mL, 3-fold dilution, 10 concentration gradients) at 4° C. for 30 min. Unbound antibodies were then washed with a staining buffer and the cells were incubated with 1% (v/v) goat anti-mouse IgG Fc fluorescent secondary antibodies (Jackson ImmunoResearch) prepared in a staining buffer at 4° C. for 30 min in the dark. Finally, the cells were collected by using a flow cytometer (BD Canto II), and the fluorescent antibodies bound to the cell surface were detected. Raw data were analyzed by using FlowJo to obtain MFI values, and a four-parameter curve fitting was performed by using GraphPad Prism software to obtain IC₅₀ values. The positive control and the negative control were COM701 (anti-CD112R antibody, Compugen, obtained by expression and purification according to the sequences in US20180280506A1) and the anti-KLH hu-IgG4 antibody, respectively.

Row | Relative activity (%) | Binder
1 | 90 | B1
2 | 69.2 | B2
3 | 93.9 | B3
4 | 162 | B4
5 | 89.1 | B5
6 | 146 | B6
7 | 90.2 | B7
8 | 159 | B8
9 | 71 | B9
10 | 95.1 | B10
11 | 75.7 | B11
12 | 109 | B12
13 | 145 | B13
14 | 97.5 | B14
15 | 155 | B15
16 | 86.1 | B16
17 | 92.9 | B17
18 | 91.6 | B18

Each binder was assayed against T1, hCD112R mFC recombinant protein (assay: ELISA, coated hCD112R-ECD-mFC; EC50 COM701/EC50 antibody).
Experimental: (§2) A plate was coated with a hCD112R-ECD-mFC protein (1.5 μg/mL) at a fixed concentration, and the humanized anti-CD112R antibodies diluted in a gradient (initial concentration: 1 μg/mL, 2.5-fold gradient dilution, 12 concentration gradients in total) were added to bind to the antigen. HRP-conjugated goat anti-human antibody IgG (Fc specific) (Sigma, A0170) was subjected to a 5000-fold dilution and used as a detection antibody for detection. The color development was performed with 0.1 mg/mL TMB, and finally stopped with 2 M hydrochloric acid. The plate was read at 420 nm/620 nm. EC₅₀ was obtained by fitting with a four-parameter logistic regression (4PL) model. The […] were COM701 (anti-CD112R antibody, Compugen, obtained by expression and purification according to the sequences in US20180280506A1) and the anti-KLH hu-IgG4 antibody.

Row | Relative activity (%) | Binder
19 | 190 | B1
20 | 138 | B2
21 | 120 | B3
22 | 129 | B4
23 | 158 | B5
24 | 229 | B6
25 | 155 | B7
26 | 128 | B8
27 | 193 | B9
28 | 136 | B10
29 | 169 | B11
30 | 127 | B12
31 | 190 | B13
32 | 114 | B14
33 | 137 | B15
34 | 127 | B16
35 | 141 | B17
36 | 143 | B18

These binders were tested against T1, hCD112R mFC recombinant protein (assay: ELISA, coated hCD112R-ECD-mFC).
Experimental: as §2

Row | EC50 [µg/mL] | Binder
37 | 0.00459 | B1
38 | 0.00663 | B2
39 | 0.00355 | B3
40 | 0.00443 | B4
41 | 0.00271 | B5
42 | 0.0029 | B6
43 | 0.00275 | B7
44 | 0.00518 | B8
45 | 0.00475 | B9
46 | 0.00288 | B10
47 | 0.00541 | B11
48 | 0.00451 | B12
49 | 0.00351 | B13
50 | 0.00345 | B14
51 | 0.00442 | B15
52 | 0.00309 | B16
53 | 0.00303 | B17
54 | 0.00275 | B18

What follows are binders tested against T2, human CD112R on Jurkat CD112R effector … (assay: cell-based or functional assay).

Row | EC50, CD112R/CD112 reporter [µg/mL] | Relative activity (%), EC50 COM701/EC50 antibody [%] | Binder
55 | 0.0268 | 245 | B1
56 | 0.0225 | 332 | B2
57 | 0.038 | 189 | B3
58 | 0.0225 | 215 | B4
59 | 0.0529 | 128 | B5
60 | 0.0285 | 179 | B6
61 | 0.0461 | 148 | B7
62 | 0.038 | 135 | B8
63 | 0.0243 | 276 | B9
64 | 0.0542 | 144 | B10
65 | 0.023 | 314 | B11
66 | 0.0237 | 209 | B12
67 | 0.0353 | 183 | B13
68 | 0.0385 | 195 | B14
69 | 0.0328 | 217 | B15
70 | 0.0633 | 110 | B16
71 | 0.0577 | 110 | B17
72 | 0.0529 | 148 | B18

The binders below were run against T1, hCD112R mFC recombinant protein (assay: FACS competition, hCD112R mFc on CHO CD112 cells).
Experimental: as §1

Row | IC50 [µg/mL] | Binder
73 | 2.67 | B1
74 | 3.48 | B2
75 | 4.24 | B3
76 | 2.21 | B4
77 | 4.46 | B5
78 | 2.44 | B6
79 | 4.41 | B7
80 | 2.25 | B8
81 | 3.39 | B9
82 | 4.18 | B10
83 | 3.18 | B11
84 | 3.29 | B12
85 | 2.47 | B13
86 | 4.08 | B14
87 | 2.31 | B15
88 | 4.62 | B16
89 | 4.28 | B17
90 | 4.34 | B18
